Legend:
CDC42Hs [1] = molecular target: T1, CDC42Hs (human, UniProt P60953)
CDC42Hs [2] = molecular target: T1, CDC42Hs; test: inferred from the dose response of GDI activity; reference rhoGDI
[3] = molecular target: rac 1 (Homo sapiens (Human)) (UniProt P63000); test: as above
CDC42Hs (human) [4] = molecular target: CDC42Hs (human) (UniProt P60953)
CDC42Hs (human) [5] = molecular target: CDC42Hs (human) (UniProt P60953); remark: listed apart in the source
CDC42Hs (human) [6] = molecular target: CDC42Hs (human) (UniProt P60953); test: inferred from the dose response of GDI activity; reference rhoGDI
CDC42Hs [7] = molecular target: T1, CDC42Hs; test: cell-based or functional assay

For human D4 protein, the GDI activity (times more concentration than rhoGDI) (CDC42Hs [1]) was over 10, the times lower binding than rhoGDI (CDC42Hs [2]) was 30 to 40 times and the times lower binding than rhoGDI [3] was 30 to 40 times.

B1: GST-mD4 (glutathione-S-transferase fusion protein of murine D4) (protein)
chain: MTEKDAQPQLEEADDDLDSKLNYKPPPQKSLKELQEMDKDDESLTKYKKTLLGDVPVVADPTVPNVTVTRLSLVCDSAPGPITMDLTGDLEALKKDTFVLKEGIEYRVKINFKVNKDIVSGLKYVQHTYRTGMRVDKATFMVGSYGPRPEEYEFLTPVEEAPKGMLARGTYHNKSFFTDDDKQDHLTWEWNLAIKKDWTEZ
Molecule B1 has a GDI activity (times more concentration than rhoGDI) (CDC42Hs (human) [4]) of over 10, an apparent EC50, GDP dissociation inhibition assay (CDC42Hs (human) [5]) of 7 to 8 µM and a times lower binding than rhoGDI (CDC42Hs (human) [6]) of 30 to 40 times.

B2: GST-LD4 (glutathione-S-transferase fusion protein of LD4) (other)
chain: MTEKAPEPHVEEDDDDELDSKLNYKPPPQKSLKELQEMDKDDESLIKYKKTLLGDGPVVTDPKAPNVVVTRLTLVCESAPGPITMDLTGDLEALKKETIVLKEGSEYRVKIHFKVNRDIVSGLKYVQHTYRTGVKVDKATFMVGSYGPRPEEYEFLTPVEEAPKGMLAQDTYHNKSFFTDDDKQDHLSWEWNLSIKKEWTE
B2 was tested, and the “apparent EC50, GDP dissociation inhibition assay” value (CDC42Hs [7]) was 7 to 8 µM.

B3: GST-GN LC (chimera of the entire rho GDI sequence except that the carboxyl terminal 33 amino acids were from LD4) (other)
chain: MAEQEPTAEQLAQIAAENEEDEHSVNYKPPAQKSIQEIQELDKDDESLRKYKEALLGRVAVSADPNVPNVVVTGLTLVCSSAPGPLELDLTGDLESFKKQSFVLKEGVEYRIKISFRVNREIVSGMKYIQHTYRKGVKIDKTDYMVGSYGPRAEEYEFLTPVEEAPKGMLAQDTYHNKSFFTDDDKQDHLSWEWNLSIKKEWTE
For B3, the “GDP dissociation inhibition assay” value (CDC42Hs [7]) was ≥ 20 fold less effective than rho GDI.

From US5767073, “D4 gene and methods of use thereof” (Beth Israel Hospital Association, dated 1998)
